Experimental data as given in patent US20160115234A1 (Biogen, published 2016).

B1: 1H6 (antibody, V domains shown)
VH: QVQLQQSGAELVRPGTSVKVSCKASGYAFTNYLIEWVKQRPGQGLEWIGVINPGSGGTNYNEKFKGKATLTADKSSSTAYMHLSSLTSDDSAVYFCARGRYEWYFDVWGAGTTVTVSS
VL: DIQMTQTTSSLSASLGDRVTISCRASQDITNYLNWYQRKPDGTVKLLIYYTSRLHSGVPSRFSGSGSGTDYSLTISNLEQEDIATYFCQQGYTLPYTFGGGTKLEIKR
notes: Mouse hybridoma monoclonal tested as supernatant
B2: 38A8 (antibody, V domains shown)
VH: QVQLQQSGAELVRPGTSVKVSCKASGYAFTNYLIEWIKQRPGQGLEWIGVINPGSGGTNYNEKFKGKATLTADKSSSTAYMQLSSLTSDDSAVYFCARGRYEWYFDVWGAGTTVTVSS
VL: DIQMTQTTSSLSASLGDRVTISCRASQDISNYLNWYLQKPDGTVKLLIYYTSRLHSGVPSRFSGSGSGTDYSLSISNLEQEDIATYFCQQGYTLPYTFGGGTKLEIKR
notes: as for B1
B3: 18F7 (antibody, V domains shown)
VH: QVQLKESGPGLVAPSQSLSITCTVSGFSLTSYGVSWVRQPPGKGLEWLGIIWGDGSTNYHSVLKSRLSISKDNSKSQVFLKLNSLQTDDTATYYCAKQDFDVWGAGTTVTVSS
VL: DVQMIQSPFSLSASLGDIVTMTCQASQGTSINLNWFQQKPGKAPKLLIYGVSNLEDGVPSRFSGSRYGTDFTLTIGSLEDEDMATYFCLQHSYLPYTFGGGTKLEIKR
notes: as for B1
B4: 12B2 (antibody, V domains shown)
VH: QVQLQQSGAELTKPGASVKISCKATGYTFSSYWIEWVKQRPGHGLEWIGEILPGSGITKYNDKFKGKATFTADTSSNTAYMQLSSLTSEDSAVYSCARLISYYYAMDYWGQGTSVTVSS
VL: DIQMTQTTSSLSASLGDRVTISCRASQDISNYLNWYQQKPDGTVKLLIYYTSRLHSGVPSRFSGSGSGTDYSLTISNLEQEDIATYFCQQGNTLPPTFGGGTKLEIKR
notes: as for B1
B5: 28C2 (antibody, V domains shown)
VH: QVTLKASGPGIVQPSQTLSLTCSFSGFSLNTSGMGVGWIRQPSGKGLEWLAHIWWDDDKRYNPALKSRLTISKDTSNNQIFLKIASVDTADTATYYCARSHYYGTFYFDYWGQGTTLTVSS
VL: DVQITQSPSYLAASPGETITINCRASKSISKYLAWYQEKPGTTYKLLIYSGSTLQSGIPSRFSGSGSGTDFTLTISSLEPEDFAMYYCQQHIEYPWTFGGGTKLEIKR
notes: as for B1
B6: 9D6 (antibody, V domains shown)
VH: QVTLKESGPGILQPSQTLSLTCSFSGFSLSTSGMGVGWIRQSSGKGLEWLAHIWWDDDKRYNPTLKSRLTISKDTSNNQVFLKIANMDTADIATYYCARSHYNGTFYFDFWGQGITLTVSS
VL: DVQITQSPSYLAASPGETITINCRASKSISKYLAWYQEKPGKTNKLLIYSGSTLQSGIPSRFSGSGSGTDFTLTISTLEPEDFAMYYCQQHIEYPWTFGGGTKLEIKR
notes: as for B1
B7: 28F4 (antibody, V domains shown)
VH: EVQLVESGGDLVKPGGSLKLSCAASGFTFSNYGMSWVRQTPDKRLEWVATISSGGTYTYYPDSVKGQFTIFRDNAKNTLYLQMSSLKSEDTAMYYCTRRDYDYEGFAYWGQGTLVTVS
VL: DIVLTQSPATLSVTPGDSVSLSCRASQSISNNLHWYQQKSHESPRLLIKYASHSISGIPSRFSGSGSGTDFTLSINSVETEDFGMYFCQQSNNWPFTFGSGTKLEIKR
notes: as for B1
B8: 34D10 (antibody, V domains shown)
VH: EVKLVESGGGLVKPGGSLKLSCAASGFTFSAYAMSWVRQTPEKRLEWVASISSGGTTYYPDSVKRRFTISRDNARNILYLQMSSLRSEDTAMYYCTRGGDYGYALDYWGQGTSVTVSS
VL: ENVLTQSPAIMSASLGEKVTMSCRASSSVNYMYWYQQKSDASPKLWIYYTSNLAPGVPARFSGSGSGNSYSLTISSMEGEDAATYYCQQFSSSPWTFGGGTKLEIKR
notes: as for B1
B9: 36A8 (antibody, V domains shown)
VH: EVRLVESGGGLVKPGGSLKLSCAASGFTFSTYAMSWVRQTPEKRLEWVASINGGGSTYYPDSVKGRFTISRDNARNILYLQMRSLRSEDTAMYYCARGGDYGYALDYWGQGTSVTVSS
VL: ENVLTQSPAIMSASLGEKVTMNCRASSSVNYMYWYQQKSDASPKLWIFYTSNLAPGVPARFSGSGSGNSYSLTISSMEGEDAATYYCQQFSSSPWTFGGGSKLEIKR
notes: as for B1
B10: 4B11 (antibody, V domains shown)
VH: EVKLVESGGGLVKPGGSLKLSCAASGFTFSSYAMSWVRQTPEKRLAWVASISSGGNIYFPDSVKGRFTISRDDARNILYLQMRSLRSEDTAMYYCARGGDYGYAMDYWGQGTSVTVSS
VL: ENVLTQSPAIMSASLGEKVTMNCRASSSVNYMYWYQQKSDASPKLWIFYTSNLAPGVPARFSGSGSGNSYSLTISSMEGEDAATYYCQQFSSSPWTFGGGSKLEIKR
notes: as for B1
B11: Recombinant FVIIa (enzyme)
chain 1: ANAFLEELRPGSLERECKEEQCSFEEAREIFKDAERTKLFWISYSDGDQCASSPCQNGGSCKDQLQSYICFCLPAFEGRNCETHKDDQLICVNENGGCEQYCSDHTGTKRSCRCHEGYSLLADGVSCTPTVEYPCGKIPILEKRNASKPQGR
chain 2: IVGGKVCPKGECPWQVLLLVNGAQLCGGTLINTIWVVSAAHCFDKIKNWRNLIAVLGEHDLSEHDGDEQSRRVAQVIIPSTYVPGTTNHDIALLRLHQPVVLTDHVVPLCLPERTFSERTLAFVRFSLVSGWGQLLDRGATALELMVLNVPRLMTQDCLQQSRKVGDSPNITEYMFCAGYSDGSKDSCKGDSGGPHATHYRGTWYLTGIVSWGQGCATVGHFGVYTRVSQYIEWLQKLMRSEPRPGVLLRAPFP
notes: domain: light chain of FVIIa;domain: heavy chain of FVIIa; Untargeted control; also called rFVIIa; recombinant FVIIa alone (no targeting moiety)

How the values were obtained:
[1] = biological target: T1, human GPIIb/IIIa (Calbiochem Cat No. 528240) (human, UniProt P08514 32-1039; P05106 27-788); test: ELISA, hybridoma supernatant
T1 construct: Bought purified protein coated on ELISA plates; How the α/β subunit specificity ELISA was set up is not described; also called αIIbβ3; glycoprotein IIb/IIIa

[2] = biological target: T2, GPIIb/IIIa on human platelets (human, UniProt P08514 32-1039; P05106 27-788); test: flow cytometry on platelets, hybridoma supernatant (signal higher than in ELISA)
T2 construct: Native receptor on gel-purified human platelets or on platelets in citrated human whole blood; also called GPIIb/IIIa receptor

[3] = biological target: T3, GPIIb/IIIa nanodiscs (recombinant biotinylated, HPC4-tagged GPIIb/IIIa) (human, UniProt P08514 32-1039; P05106 27-788); test: SPR, biotinylated GPIIb/IIIa nanodiscs on a streptavidin chip
T3 construct: Transiently expressed in HEK293 cells, purified, and put into nanodiscs with scaffold protein and phospholipids; It carries a tag for in vivo biotinylation and an HPC4 tag; also called GPIIb/IIIa receptor; biotinylated GPIIb/IIIa receptor

[4] = biological target: T2, GPIIb/IIIa on human platelets; test: flow cytometry, protein spiked into citrated human whole blood, FITC anti-FVII on CD42b-gated platelets

| Binder | binding result [1] | other results |
| --- | --- | --- |
| B1 | binds |  |
| B2 | binds |  |
| B3 | binds | binding result [2]: binds |
| B4 | binds |  |
| B5 | binds |  |
| B6 | binds |  |
| B7 | binds | binding result [2]: binds |
| B8 | binds |  |
| B9 | binds |  |
| B10 | binds |  |
| B11 |  | binding result [3]: no binding; binding result [4]: no binding |
